Test results taken from publication PMC6548137, “Structural basis for the nuclear import and export functions of the biportin Pdr6/Kap122” (The Journal of Cell Biology, 2019).

T1: H14-ZZ-bdSUMO-tagged Pdr6 (S. cerevisiae, UniProt P32767 2-1081)
T1 construct: Pdr6/Kap122, S. cerevisiae; also called tagged NTR; source: E. coli Top10 F', purified (Ni(II) chelate, imidazole elution); not shown: His14, N-terminal, kept; ZZ, N-terminal, kept; bdSUMO, N-terminal, kept
T1 sequence: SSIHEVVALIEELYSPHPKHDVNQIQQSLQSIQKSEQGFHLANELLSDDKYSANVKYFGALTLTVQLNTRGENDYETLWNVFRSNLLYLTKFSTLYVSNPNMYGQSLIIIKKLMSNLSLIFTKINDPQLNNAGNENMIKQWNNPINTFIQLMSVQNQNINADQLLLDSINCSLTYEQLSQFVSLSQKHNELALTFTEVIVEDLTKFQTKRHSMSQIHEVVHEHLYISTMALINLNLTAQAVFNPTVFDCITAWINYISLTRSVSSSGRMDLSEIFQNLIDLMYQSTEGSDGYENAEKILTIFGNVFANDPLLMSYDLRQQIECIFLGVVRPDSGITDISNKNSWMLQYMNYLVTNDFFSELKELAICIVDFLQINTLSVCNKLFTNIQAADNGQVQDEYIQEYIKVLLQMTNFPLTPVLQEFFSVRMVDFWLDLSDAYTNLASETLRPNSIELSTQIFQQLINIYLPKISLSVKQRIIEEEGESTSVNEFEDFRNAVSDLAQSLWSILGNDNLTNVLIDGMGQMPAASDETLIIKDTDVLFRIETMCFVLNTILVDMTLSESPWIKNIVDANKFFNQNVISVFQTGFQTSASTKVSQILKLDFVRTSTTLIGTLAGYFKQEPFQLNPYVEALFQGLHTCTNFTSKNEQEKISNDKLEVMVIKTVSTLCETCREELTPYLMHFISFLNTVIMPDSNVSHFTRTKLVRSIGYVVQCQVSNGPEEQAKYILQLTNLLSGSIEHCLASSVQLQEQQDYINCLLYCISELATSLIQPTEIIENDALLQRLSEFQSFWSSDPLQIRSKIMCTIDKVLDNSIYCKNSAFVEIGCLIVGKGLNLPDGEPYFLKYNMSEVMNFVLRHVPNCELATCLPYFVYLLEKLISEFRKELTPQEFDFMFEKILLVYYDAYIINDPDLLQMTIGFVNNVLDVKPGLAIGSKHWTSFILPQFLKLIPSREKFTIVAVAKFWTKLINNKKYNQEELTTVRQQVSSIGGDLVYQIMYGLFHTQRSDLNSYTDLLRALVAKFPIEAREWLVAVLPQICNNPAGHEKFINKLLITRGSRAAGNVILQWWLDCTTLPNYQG

B1: Pdr6/Kap122 (S. cerevisiae), full length, tag removed (natural protein)
chain: MSSIHEVVALIEELYSPHPKHDVNQIQQSLQSIQKSEQGFHLANELLSDDKYSANVKYFGALTLTVQLNTRGENDYETLWNVFRSNLLYLTKFSTLYVSNPNMYGQSLIIIKKLMSNLSLIFTKINDPQLNNAGNENMIKQWNNPINTFIQLMSVQNQNINADQLLLDSINCSLTYEQLSQFVSLSQKHNELALTFTEVIVEDLTKFQTKRHSMSQIHEVVHEHLYISTMALINLNLTAQAVFNPTVFDCITAWINYISLTRSVSSSGRMDLSEIFQNLIDLMYQSTEGSDGYENAEKILTIFGNVFANDPLLMSYDLRQQIECIFLGVVRPDSGITDISNKNSWMLQYMNYLVTNDFFSELKELAICIVDFLQINTLSVCNKLFTNIQAADNGQVQDEYIQEYIKVLLQMTNFPLTPVLQEFFSVRMVDFWLDLSDAYTNLASETLRPNSIELSTQIFQQLINIYLPKISLSVKQRIIEEEGESTSVNEFEDFRNAVSDLAQSLWSILGNDNLTNVLIDGMGQMPAASDETLIIKDTDVLFRIETMCFVLNTILVDMTLSESPWIKNIVDANKFFNQNVISVFQTGFQTSASTKVSQILKLDFVRTSTTLIGTLAGYFKQEPFQLNPYVEALFQGLHTCTNFTSKNEQEKISNDKLEVMVIKTVSTLCETCREELTPYLMHFISFLNTVIMPDSNVSHFTRTKLVRSIGYVVQCQVSNGPEEQAKYILQLTNLLSGSIEHCLASSVQLQEQQDYINCLLYCISELATSLIQPTEIIENDALLQRLSEFQSFWSSDPLQIRSKIMCTIDKVLDNSIYCKNSAFVEIGCLIVGKGLNLPDGEPYFLKYNMSEVMNFVLRHVPNCELATCLPYFVYLLEKLISEFRKELTPQEFDFMFEKILLVYYDAYIINDPDLLQMTIGFVNNVLDVKPGLAIGSKHWTSFILPQFLKLIPSREKFTIVAVAKFWTKLINNKKYNQEELTTVRQQVSSIGGDLVYQIMYGLFHTQRSDLNSYTDLLRALVAKFPIEAREWLVAVLPQICNNPAGHEKFINKLLITRGSRAAGNVILQWWLDCTTLPNYQG
B2: S. cerevisiae Ubc9, full length (enzyme, UniProt P50623 1-157, looked up)
chain: MSSLCLQRLQEERKKWRKDHPFGFYAKPVKKADGSMDLQKWEAGIPGKEGTNWAGGVYPITVEYPNEYPSKPPKVKFPAGFYHPNVYPSGTICLSILNEDQDWRPAITLKQIVLGVQDLLDSPNPNSPAQEPAWRSFSRNKAEYDKKVLLQAKQYSK
notes: Ubc9, SUMO-conjugating E2 enzyme, S. cerevisiae, full length; residues 2-157 are in the model; Full length is said for the crystallised protein; also called yeast Ubc9; source: NEB Express cells, purified (Ni(II) chelate)

Tests used:
Details in all cases: both partners purified
[1] = biological target: human RanQ69L (residues 5-180), GTP-bound (human, UniProt P62826 5-180, Q69L); assay: crystal structure; Pdr6•RanGTP, hexagonal crystals, 18°C, 50 mM sodium acetate pH 5.5, 220 mM MgCl2, 19% pentaerythritol propoxylate, 10% 2-Methyl-2,4-pentanediol
[2] = biological target: B1; assay: crystal structure; Pdr6•Ubc9, 18°C, 50 mM sodium cacodylate pH 5.7, 20 mM MgCl2, 3-5% ethanol
[3] = biological target: T1, H14-ZZ-bdSUMO-tagged Pdr6; assay: pull-down; 1 µM H14-ZZ-bdSUMO-tagged NTR with 2 µM human or yeast Ubc9; retrieved via the tagged NTR by anti-Protein A beads, eluted by bdSENP1 protease, SDS-PAGE and Coomassie

Row | Binder | binding result [1] | binding result [2] | binding result [3]
1 | B1 | binds |  | 
2 | B2 |  | binds | binds
